Assay results as given in the DeepSol protein solubility set.

Experiment: soluble on expression in E. coli; label from the status in PepcDB or PDB records

Which “soluble on expression in E. coli” value does the source give for “MSLAELDLTGGMDEARGDIADLLGKEERKILTTGNAEIDKKIADGLPLGSLTLIEGENDTGKSVLTQQFIWGSMHNNLRVDLFSTELTTKSFLTQMESMSLDISDFFAWGYIRLFHCHLVEFKWTPDAMNDILERIITHVKFSNTDVAIIDSLTIFTEYTTNEAVLTFLTQAKNICDQGKTILITMHSYAFTDEVLTRVRSICDAHLLLMRKLMGDKYVMVLEVVKVRGARKTTGNLVSFEVHPGYGMKIIPVSVAKVEGHHHHHH” here?
The value was “soluble”.

For “MAHHHHHHMQFHQFLCRFRNQVLLKGAFWSCPHQFRLGLHDRWKVNLVKVHIGVLGFFFKTHGESVVSGAKGDNLHGCRNGGVSALKVTNAFLNKIRNDQHTQIVPTIYQRGTPRQLSHEMSKIRILKVPMEHRRAFAHDTVIVSTLHRSVKTDVRGDTHRGTVLLHWKMHCLR”, which “soluble on expression in E. coli” value is on record?
Its value is “not soluble”.

For “MNEIQKYIAANEPKIMEDLFSLIRIPSISALPEHHDDMLACAQRWAQLLLEAGVDEALVMPSKGNPIVFAQKIVDPNAKTVLVYAHYDVMPAEPLELWKSQPFEPEVRDGYIWARGADDDKGQSFIQVKAFEYLVKNELLKNNVKFIFEGEEEIGSPSLEAFCEEHKELLKADVILVSDTSMLGAELPSLTTGLRGLAYWEIEVTGPNRDLHSGHFGGAVANPINVLCEIISKVTDKDGRITVPGFYDDVEEVPQAEREMIAHIPFDEKKYKEAIGVKELFGEKGYSTLERNSCRPSFDVCGIWGGYTGEGSKTVLPSKAYAKVSCRLVAHQDHHKISQMFADYILQMAPDTVQVKVTPMHGGQGYVCPISLPAYQAAEKGFEIAFGKKPLAVRRGGSIPIISTFEQVLGTKTVLMGFGLESDAIHSPNENFSLDIFRKGIEAVIEFHQEYAKR”, which “soluble on expression in E. coli” value is on record?
The value was “not soluble”.

With “MGSDKIHHHHHHVNQVSARRPVTVTGEDWFEIAKTLEISSESVVQDFLRDNPGFAADLVIPKRVTIETVFGCNARCGMCVIDQPTERPKGTMPLEQFKAIVDKLVPYRDRIEMMDFFALGEPLIDTHLFERIRYVKAKGFRRLAFATNAHLLTAAKRRDLLESGIDTVIFSIDGITKATHESIRERVNFDKVMENVQAVIRERDQGDFKTRFVVRFVRQAKNRHEWEEYKAFWSSRISPDRNDVVTSYDMHTWGGQVANKDDVIGGEQQRDEMVERLPCHHAFDKLTILADGSIPLCSEDILEPAYGFGKIGDQDPIQVFNSERLRAMRRLHLAGRKALLKGCGECTLLYSEPRRGSD” as the sequence, how does the “soluble on expression in E. coli” value read?
The value was “not soluble”.

Which “soluble on expression in E. coli” value does the source give for “MGSDKIHHHHHHMKITIYSKDLYTYGAMLVGGILKETHKHNIKLIKDIKNKKLFLKSDIVILSLYSTLNIIDPVIKDTVDYLKSKNIKIYVAGPVSAYPEIILNELNVDGVILGEGELTTPEIINGSKDGLAYFENGEMIVNKPKSKPDLDFSKIYVPKDIAAQNVRGANVYIETHRGCLGHCTFCQVPEFFGRDIRSKPIELIIEEVNELKKNGVNRIAISGGTGSLYNFKNTVNKNKFIEMIESVSNIIGRQNLSVPDMRVDYVDEEVLNAIKNYSIGWVFYGIESGSDKLLNSMKKGTNSKKNLKAIELAKDCGVKVAGSFIVGHPKEKEVDFLMTKDFIVDAELDDVFVSAAEPIPKTELCTEVLNTKMDENPTFISHNGPYRRYGLKENEARAYDLMLHSEMWKSTPRVITTNLSKVYLDEAKMQGSDIRKATELIFKYRDFLI” here?
The value was “not soluble”.

With “DYRPGGFHPAFKGEPYKDARYILVRKLGWGHFSTVWLAKDMVNNTHVAMKIVRGDKVYTEAAEDEIKLLQRVNDADNTKEDSMGANHILKLLDHFNHKGPNGVHVVMVFEVLGENLLALIKKYEHRGIPLIYVKQISKQLLLGLDYMHRRCGIIHTDIKPENVLMEIVDSPENLIQIKIADLGNACWYDEHYTNSIQTREYRSPEVLLGAPWGCGADIWSTACLIFELITGDFLFEPDEGHSYTKDDDHIAQIIELLGELPSYLLRNGKYTRTFFNSRGLLRNISKLKFWPLEDVLTEKYKFSKDEAKEISDFLSPMLQLDPRKRADAGGLVNHPWLKDTLGMEEIRVPDRELYGSGSDIPGWFEEVRDHKRH” as the sequence, how does the “soluble on expression in E. coli” value read?
The value was “soluble”.

With “MSAYSMLSDRIVMAKELIKRAESLSRSRKGGIEGGAKLCSKLKAELKFLQKIEAGKVAIKESHLQSTNLTHLKAIVESAENLEEVVSVLRVFGYTDTLGEKQTLVVDVVANGGHTWVKAIGRKAEALHNIWLGRGQYGDKSIIEQAEDFLQASRQQPVQYSNPHIVFAFYNSVSSPMADKLKDMGISVRGDIVAVNSLLNHPEEFQLSESESDDEGQELLQVTRVDRDNVLARVAFPTEIKVDVCKKVNLDITTLITYVSAMSYGGCHFVFKEKVLTEQAEQERKERVLPQLEAFMKDKELFACESAVKDFQSILDTLGGPGERERADVLIKRISVVPDQPSERALRLVASSKINSRSLTIFGTGDTLKAITMTANSGFVRAANNQGVKFSVFIHQPRALTESKEAFAVPLPKDLTDDSAH” as the sequence, how does the “soluble on expression in E. coli” value read?
The value was “not soluble”.

For “MQKGVYIMNSTSSIITIGREYGSGGRQIGQEVAKYFGIKCYDKELLEHAANDSGICKELFEHHDEKPTNSFLYSLVMDTYSFGYSSSGFSDMPMNHKIFLAQFDAIKKLAGEGPCVMVGRCADYALADWNDCFSIFVHADLDWRINRIASKHGKTPKEAKDMITKTDKSRASYYNYYTNKKWGAARSYNLCIDSGKLGIDYATEAIIESIKIFDRTKISK”, which “soluble on expression in E. coli” value is on record?
The value was “not soluble”.

With “MGSDKIHHHHHHMQPELSEFLRQHRITEVEAIIPDMAGIARGKIIPRNKFESGESMRLPQAVMVQTVTGDYPEDGTLTGVTDPDMVCVPDPSTICLVPWAVDPTAQVIHDCVHFDGSPVEISPRYVLRRVLDLYKAKGWQPVVAPELEFYLVDMNADPDLPLRPPIGRTGRAETGRQSYSIEAVNEFDPLFEDIYEYCEMQGLDIETLIHEVGAAQMEINFVHGDALSLADQVFLFKRTVREAALRHNMYATFMAKPMEGEPGSAMHIHQSLADVHTGRNLFAEEGGVVSPMFHSYLAGLQKYTPALMPIFAPYINSYRRLSRFMAAPINVQWGYDNRTVGFRIPQSTPVARRIENRIPGVDCNPYLAFAATLAAGYLGLTQQLAPTEPIASDGYDLPYQLPRNLEEGISLMAACTPLAGILGDKFVKAYLALKETEYEAFFRVISSWERRHLLLHV” as the sequence, how does the “soluble on expression in E. coli” value read?
The value was “not soluble”.

For “MTEQLPNCPECGSAYAYEDRGLFICPECGHEWSPTEEVAEEGLVVKDSNGNLLADGDSVTVIKDLKVKGASGAIKQGTKVKNIRLVEGDHNIDCKVDGFGPMKLKSEFVKKN”, which “soluble on expression in E. coli” value is on record?
The value was “not soluble”.

Which “soluble on expression in E. coli” value does the source give for “NPNTCTESIGKVAPSYVDEPESEAPATAENTQPDVIIDWQAALKQSANKEDLAKDMLRMLIDFIPEVEEVVDHALEQDDYSREELIHVIHKLHGSSSYCGVPRLKSLCATLEHALRSGASIEEIEPEMFELQDEMIKVTTTAKLYLEQ” here?
The value was “not soluble”.

With “MAHHHHHHMPSSSPLLGPVFEVITPRLWVRYLQRYLDVPELLTLSETCWTFFVRCNEEPLWRELCLRPPYIDVQQKLGLFTFRGSWKYTVCAYRAEGAGADRQSSRSSTVVLAQSRSIADASLRFNVLLPRIVSCLQVSGEMSSDDGAAWMSQLRSPCAAGTGAASEVSVGLDNGRDEGAAEATVGAEMSVGAWQENVLGKPYAPTLAVKYLSLSAGAINYFMRDGTFLRPPLHALRQPQHRLVRPHTEFTDYNWYGTCLLDLVPLPQWCTNAQFFATLRWKTSGNTRRLQCCGHATAALDDTGGVRGPSHLPDELRGVPGVVDRRYRLSVDAFQREYEVPNMPVVLTGCIEDWPARDTWQDIHFFHCFASEALRANGRTADGRRFRMSAADYLAYEVATNAEKPMYVFDKAALQRSTALRADYAIPPYFTEDFFSYMTEEDRPDYRWLLVGPDGSGSPFHTDPHGTCAWNAVLSGCKRVTLYPPHVVPPGVEEEWIHSDYYASEPCLRWYRTRGDSMPSGSAVCGTFSKEHAGEAYHGSARELPPVEALVFPGDLVFIPSGWWHQVLNIGHTVAVTHNLCSPLTFPRVVADMNAYADRTVRKRFQCALRRAGRDELAVQLRVPGAKRGVYAGHLL” as the sequence, how does the “soluble on expression in E. coli” value read?
The value was “not soluble”.

For “EPAHGRQHTPCLFCDRLFASAEETFSHCKLEHQFNIDSMVHKHGLEFYGYIKLINFIRLKNPTVEYMNSIYNPVPWEKDEYLKPVLEDDLLLQFDVEDLYEPVSTPFS”, which “soluble on expression in E. coli” value is on record?
Its value is “soluble”.

With “MGSDKIHHHHHHMKNRDWYTSLVSGLLFPLQERLKDHSTVSVRKALELSQWWNRERLENLQLLKLRHLLAEAEAHVPYYRRIFAEIGFKAAEVSSLADLARLPLLDKPAIRADTEALKSQKARSLRSFNTGGSSGEPLTFYIGRERVSHDVAAKWRATRWWDVDIGDPEMVVWGSPIELGAQDRLRMLRDRLLRTRLFPAFEMSEQKLDRFLGELRAAPPRMFFGYPSALSHIARHAQARGQRMDDLGINVAFVTSERLYDEQRQQISKTFGCPVANGYGGRDAGFIAHECPEGGMHITAEDIIVEIVDRQGVPLPCGEAGEIIVTHLSTAEFPFIRYRTGDIGILDDRICRCGRGLPLLREIQGRSTDFVVAQDGTVMHGLALIYILRELPQISHFKIIQESLNLIHIWVVSGAKLDREITAKIEEEFKARLGQSVEVLIEETTEIPAEKSGKFRYVISKIAGA” as the sequence, how does the “soluble on expression in E. coli” value read?
The value was “not soluble”.

For “RRVVVTGLGMVTPLGRGVETTWRRLIDGECGIRGLTLDDLKMKSFDEETKLYTFDQLSSKVAAFVPYGSNPGEFDEALWLNSKAVANFIGYAVCAADEALRDAEWLPTEEEEKERTGVSIGGGIGSICDIVEAAQLICEKRLRRLSPFFIPKILVNMASGHVSMKYGFQGPNHAAVTACATGAHSIGDATRMIQFGDADVMVAGGTESSIDALSVAGFSRSRALSTKFNSSPQEASRPFDCDRDGFVIGEGSGVIVLEEYEHAKRRGAKIYAELCGYGMSGDAHHITQPPEDGKGAVLAMTRALRQSGLCPNQIDYVNAHATSTPIGDAVEARAIKTVFSEHATSGTLAFSSTKGATGHLLGAAGAVEAIFSILAIHHGVAPMTLNVKNPDPIFDKRFMPLTTSKKMLVRTAMSNSFGFGGTNASLLFASI”, which “soluble on expression in E. coli” value is on record?
The value was “soluble”.

For “MDNLMLNNKIYLEGTVVSELEFSHEMYGEGFYTFNLEVMRLSDSKDLLNITVSERLITTMDLKIGTEIVVEGQLRSYNKFIDGNNKLILTVFARNIEYCEERSKNPNEIFLDGFICKEPVYRTTPFGREIADLLLAVNRSYNKSDYIPTIAWGRNSRFCKTLEVGDNIRIWGRLQSREYQKKISETEVVKKIAYEVSISKMEKVSVESEQNESGEEISLEHHHHHH”, which “soluble on expression in E. coli” value is on record?
Its value is “not soluble”.

Which “soluble on expression in E. coli” value does the source give for “GMNLTELMERIPHLREILNIVREAFKDYDDPAHDISHTFRVMENASEIASREKCDLQKAIIAALLHDIKRPHEALTGVDHAESGAEYASGLLPTMGFDISFVAEVSKAIRSHRYSGGLTPTSLTGKILQDADRLDAIGAVAIARVFSYSGKTGTPLHSLQFSPRSSYSGNSRSSINHFHEKILKIRPETFWTETARKMAEDRYSFVVEFVQRFLAEWGQI” here?
The value was “soluble”.

For “MSLESILITGASGFIGSFIVEEALKRKFGVWAGIRPTSSKKYLKNRKIHFLELDFAHPNELRAQLSGHKGTYNKFDYIIHCAGVTKCPDKNTFDYVNYLQTKYFIDTLKALNMVPKQFIYISTLSVFGPVREKDYSPIEAGDVPMPNTAYGLSKLKAELYIQSIPGFPYVIYRPTGVYGPRELDYFLMAKSIRQHVDFSVGFRRQDLTFVYVKDIVQAIFLGIEKKVTRRAYFLTDGKVYNSRVFSDLIQKELGNPFVIHVKCPLIVLKVISLLAEFIATRSGKSSTLNSDKYKIMKQRNWQCDITPAINELGYAPEYDLEKGVRETIDWYKNEGWEGHHHHHH”, which “soluble on expression in E. coli” value is on record?
The value was “soluble”.

For “MKKVKSIGLIETLGMVGVVEAADAALKAANVTLLGYEFNGAGYMVIKLTGDVAAVKAAVSSGAATAQKLGNLVAAHVIPRPDDQVIDTEICGKDNVPPFNGSDSEPEDGKPSGSSSEKESKESTETAVKASEPKPATATADKEEAPLEKAAPEAKDAKDTKEAPAKQASKPEAKTKSSKPTASEAKNASSPKTPEKQADSGKTAPAKTDGGNKPKSRK”, which “soluble on expression in E. coli” value is on record?
Its value is “not soluble”.
